# In article PMC4565672:
# Target: NEURL4 (endogenous, HEK293 cells) [human (endogenous in HEK293)]
# Assay: co-immunoprecipitation (FLAG-IP) and Western blotting, band quantification
# Conditions: mean ± SE from five repeated experiments; parent: 1; read off a plot
row,ratio to parent,Substance
1,1.8,"FLAG-tagged human LRRK2 (wild type) mutant R1398L [human] / NEURL4 (endogenous, HEK293 cells) [human (endogenous in HEK293)] chain 1 R1398L"
2,3.2,"FLAG-tagged human LRRK2 (wild type) mutant R1441G [human] / NEURL4 (endogenous, HEK293 cells) [human (endogenous in HEK293)] chain 1 R1441G"
3,4.3,"FLAG-tagged human LRRK2 (wild type) mutant T1348N [human] / NEURL4 (endogenous, HEK293 cells) [human (endogenous in HEK293)] chain 1 T1348N"

# Target: HERC2 (endogenous, HEK293 cells) [human (endogenous in HEK293)]
# Assay: as above
# Conditions: mean ± SE from five repeated experiments; parent: 1; read off a plot
row,ratio to parent,Substance
1,1.4,"FLAG-tagged human LRRK2 (wild type) mutant R1398L [human] / HERC2 (endogenous, HEK293 cells) [human (endogenous in HEK293)] chain 1 R1398L"
2,2.5,"FLAG-tagged human LRRK2 (wild type) mutant R1441G [human] / HERC2 (endogenous, HEK293 cells) [human (endogenous in HEK293)] chain 1 R1441G"
3,3.4,"FLAG-tagged human LRRK2 (wild type) mutant T1348N [human] / HERC2 (endogenous, HEK293 cells) [human (endogenous in HEK293)] chain 1 T1348N"
